Key:
[1] = molecular target: His-DAF-16 (C-terminal fragment), O16850
[2] = molecular target: His-DAF-16 (N-terminal fragment), O16850
His-DAF-16 (N-terminal fragment), O16850, sequence (O16850 whole entry, looked up, the tested form may be a part): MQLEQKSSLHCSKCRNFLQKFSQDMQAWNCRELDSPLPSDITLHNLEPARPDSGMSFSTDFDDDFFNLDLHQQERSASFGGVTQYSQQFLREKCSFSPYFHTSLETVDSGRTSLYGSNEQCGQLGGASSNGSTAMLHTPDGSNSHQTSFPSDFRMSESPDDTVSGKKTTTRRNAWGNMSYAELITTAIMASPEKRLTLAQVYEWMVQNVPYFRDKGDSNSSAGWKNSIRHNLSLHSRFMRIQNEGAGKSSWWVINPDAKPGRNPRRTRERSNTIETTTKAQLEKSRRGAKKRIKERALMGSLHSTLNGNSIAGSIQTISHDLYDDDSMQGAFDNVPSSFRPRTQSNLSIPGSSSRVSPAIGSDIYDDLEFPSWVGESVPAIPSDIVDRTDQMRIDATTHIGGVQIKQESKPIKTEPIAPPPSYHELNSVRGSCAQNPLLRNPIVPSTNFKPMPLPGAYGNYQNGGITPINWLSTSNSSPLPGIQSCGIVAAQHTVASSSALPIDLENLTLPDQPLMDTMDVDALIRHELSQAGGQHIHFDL

His-DAF-16 (C-terminal fragment), O16850, sequence (O16850 whole entry, looked up, the tested form may be a part): as above
GST-c-Jun (1-79), sequence (P05412 1-79): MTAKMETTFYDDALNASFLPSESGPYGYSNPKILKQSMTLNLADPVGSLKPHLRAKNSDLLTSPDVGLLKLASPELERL

Protein	in vitro kinase assay (phosphorylation, [γ-32P]ATP, autoradiography) (GST-c-Jun (1-79))	in vitro kinase assay (phosphorylation, [γ-32P]ATP, autoradiography) [1]	in vitro kinase assay (phosphorylation, [γ-32P]ATP, autoradiography) [2]
Xpress-tagged JNK-1 (protein) MEERLSTTSSYPSHPGRSVEEDHNTLLASSSISSIIRGTRGHLNNFIESVGNWLVPSSSGRDDDAVSLDSCQSVYSPVRHHINSGTGGGILMEPSSIHVPENYYSVTIGEAQMVVLKRYQNLRLIGSGAQGIVCSAFDTVRNEQVAIKKLSRPFQNVTHAKRAYRELKLMSLVNHKNIIGILNCFTPQKKLDEFNDLYIVMELMDANLCQVIQMDLDHERLSYLLYQMLCGIRHLHSAGIIHRDLKPSNIVVRSDCTLKILDFGLARTAIEAFMMTPYVVTRYYRAPEVILGMGYKENVDVWSIGCIFGELIRGRVLFPGGDHIDQWTRIIEQLGTPDRSFLERLQPTVRNYVENRPRYQATPFEVLFSDNMFPMTADSSRLTGAQARDLLSRMLVIDPERRISVDDALRHPYVNVWFDEIEVYAPPPLPYDHNMDVEQNVDSWREHIFRELTDYARTHDIYS	JNK-1 phosphorylates DAF-16 as well as the mammalian c-Jun protein used as a positive control	The phosphorylation was only observed with the N-terminal (83-307) fragment of DAF-16, but not with the C-terminal (255-470) fragment (data not shown)	Upon activation of JNK-1 by UV, JNK-1 phosphorylates DAF-16
kinase-dead JNK-1 (APF) (protein) MEERLSTTSSYPSHPGRSVEEDHNTLLASSSISSIIRGTRGHLNNFIESVGNWLVPSSSGRDDDAVSLDSCQSVYSPVRHHINSGTGGGILMEPSSIHVPENYYSVTIGEAQMVVLKRYQNLRLIGSGAQGIVCSAFDTVRNEQVAIKKLSRPFQNVTHAKRAYRELKLMSLVNHKNIIGILNCFTPQKKLDEFNDLYIVMELMDANLCQVIQMDLDHERLSYLLYQMLCGIRHLHSAGIIHRDLKPSNIVVRSDCTLKILDFGLARTAIEAFMMAPFVVTRYYRAPEVILGMGYKENVDVWSIGCIFGELIRGRVLFPGGDHIDQWTRIIEQLGTPDRSFLERLQPTVRNYVENRPRYQATPFEVLFSDNMFPMTADSSRLTGAQARDLLSRMLVIDPERRISVDDALRHPYVNVWFDEIEVYAPPPLPYDHNMDVEQNVDSWREHIFRELTDYARTHDIYS	–	–	The kinase-dead JNK-1 (APF) failed to phosphorylate DAF-16
